Assay results as given in paper PMC2865256 (Journal of immunology (Baltimore, Md. : 1950), 2009).

Molecular target: T1, mouse HVEM on splenic T cells (mouse (endogenous in splenic T cells), UniProt Q80WM9 39-275)
T1 sequence (looked up): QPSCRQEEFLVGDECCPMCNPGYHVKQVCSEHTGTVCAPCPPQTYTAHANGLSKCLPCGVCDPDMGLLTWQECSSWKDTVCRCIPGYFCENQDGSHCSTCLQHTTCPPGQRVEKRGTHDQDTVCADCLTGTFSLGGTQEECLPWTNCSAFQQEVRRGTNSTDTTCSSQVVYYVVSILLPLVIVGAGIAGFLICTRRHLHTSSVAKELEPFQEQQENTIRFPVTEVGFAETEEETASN
Assay: flow cytometry on cells

B1: mouse BTLA-Fc (Fc fusion, UniProt Q7TSA3 30-183, looked up)
chain: EKATKRNDEECPVQLTITRNSKQSARTGELFKIQCPVKYCVHRPNVTWCKHNGTICVPLEVSPQLYTSWEENQSVPVFVLHFKPIHLSDNGSYSCSTNFNSQVINSHSVTIHVRERTQNSSEHPLITVSDIPDATNASGPSTMEERPGRTWLLY
MFI ratio of Btla-/- T cells to WT T cells: 4.4
